Drawing on the supplement of paper PMC9942255, this text covers AmyQ secretion efficiency for 109 sequences.

Values joined by “and” are separate entries in the source; they are usually repeats but may differ in a detail not shown here. Equal entries are not always repeated.

This series deals with Bacillus subtilis DB104 (SP-AmyQ fusion secretion). Description: AmyQ secretion efficiency, weighted average sort bin (1 = best secretion, 10 = worst) (bin number (weighted average, 1-10)); higher = lower secretion efficiency. Summed up:
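With fluorescein-starch as substrate, a B. subtilis DB104 library expressing mature AmyQ fused to designed signal peptides (integrated at amyE) was encapsulated at about 0.3 cells per ~65 nL alginate bead. After about 13 h at room temperature, beads were nile red stained, and occupied beads were sorted by large-particle flow cytometry into 10 equally populated bins by green/red fluorescence ratio. Illumina sequencing of the amplicons in each bin was used to calculate the secretion score, which is the read-frequency-weighted average bin number, normalised to beads per bin, with low-abundance sequences left out.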

MFLAKRVSALTPSTTLAITAKAKEL gave an AmyQ secretion efficiency of 7.34. The value for MNKLKRLSMLTVMIASVFIFSSSALAAQY was 2.06.

Sequence MKLKKRVSMFLVALTMCGGLFVTPTKAVKT displayed an AmyQ secretion efficiency of 3.85. Take MKKIVSILFMFGLVMGFSSFFPSTVFAADK: the AmyQ secretion efficiency came out at 3.12.

For MGLGKKLSVAVAASFMSLSISLPVQAAEG, the AmyQ secretion efficiency is 1.35. The sequence MKWMCSICCAAVLLAGGANQAEAV registered an AmyQ secretion efficiency of 2.83.

In turn, MRNLTKTSLLLAGLCTAAQMVFVTHASADDE came in with an AmyQ secretion efficiency of 5.02. Turning to MKKKSTVFLSVVLVTTVFLVKQQESVAQAKQL, the AmyQ secretion efficiency came to 2.06. Sequence MTKIGLLFMLCLAALFTIGFPAQQADAAEA yielded an AmyQ secretion efficiency of 3.42. The figure for MRPVFPLILSAVLFLSCFFGARQTEASLSKR is 3.68; for MRKKRVITCVMAASLTLGPAGYATAKED it is 2.6; for MKIRKILLSSALSFGMLISAVPALFAGT it is 5.97.

As to MKRKRLLSSLAISALSLGLLVSAPTASFAAES, the AmyQ secretion efficiency is 2.64 and 3.51. With MKSKGSIMACLILFSFTITTFINTETTSAFSN, the AmyQ secretion efficiency was found to be 5.51. On to MKLRKVRRRKKRSLGLLVSASPAFATSP, for which the AmyQ secretion efficiency is 8.72. MGSGTIWTIILGALLVCCIAVAYTLTKSQAGASSS registered an AmyQ secretion efficiency of 7.61.

MKNMSCKLVVSVTLFFSFLTIGPLAHDQNS yielded an AmyQ secretion efficiency of 6.5. The sequence MNLRKILLSSALSLGMLVSAAPVLWTSS returned an AmyQ secretion efficiency of 6.71. Sequence MHLIRAAGAVCLAVVLIAGCRFNEDQHQPEGENT had an AmyQ secretion efficiency of 5.35. The value for MKLKKRVSMTSKSSGSCRSLFVTPAKAVKT was 7.23.

The sequence MKKRITYSLLALLAVVAFAFFISSKAKAAEA displayed an AmyQ secretion efficiency of 5.19. The sequence MKLAKRVRKLTPSTTLAITAKAKEL registered an AmyQ secretion efficiency of 8.89.

MKKQIITATTAVVLGSTLFAGAASAKRK returned an AmyQ secretion efficiency of 2.25.

Regarding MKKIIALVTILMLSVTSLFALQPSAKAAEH, the AmyQ secretion efficiency was 2.46. As to MKKWIYVRRVLSIAGIGGFSVHAASS, the AmyQ secretion efficiency worked out at 7.43.

As to MRKKRVITCVMAASLTLGSLLAAAIATAKED, the AmyQ secretion efficiency amounted to 3.82. The sequence MRPVFPLILSAVLFLSCFFGARQTEESASKR displayed an AmyQ secretion efficiency of 7.33. The value for MKLWMRKTLVVLFTIVTFGLVSPPAALMIDKP was 2.83; that for MRIFKKAVFVIMISFLIATVNVNTAHAEDD was 3.86; that for MKKTIMSFVAVAALSTTAFGAHPTASAKEI was 2.53.

Regarding MHLIRAAGAVCLAVVLIAGCRFNEDQHQAESENT, the AmyQ secretion efficiency stood at 3.48. The figure for MRGKSAVLLSLIMLIAGFLIWFSFQM is 7.55; for MPYLMMVLLLLVTGLFMSLFAVTATASAQTG it is 1.47; for MGLGKKLSVAVAASFMSLSISLPGVQWAEG it is 3.19. The figure for MSMWMITIAMLILAGIALFVFISPLKSHKT is 7.42; for MKNMSCKLVVSVTLFFSFLGGGPLAHAQNS it is 1.53; for MKRMIVRMTLPLLIVCLAFSTSFSASARAASE it is 2.38. MKLAKRVSALTPSTTLAIATVLATAKAKEL came in with an AmyQ secretion efficiency of 6.28.

MKKRKRRNFKRFIAAFLVLALMISLVPADKLAKST yielded an AmyQ secretion efficiency of 4.89. The figure for MTKKFTIMSAWFLPLVCVLLISGWLAPAASASAQTT is 1.82; for MKWMCSICCAAVLLAGGAHQAEAV it is 2.89. The value for MKLSVKIAGVLTVAAAAMTAKMYATKKGN was 8.52. For the sequence MKKKKRRIVSILFMFGLVMGFSQFQPSTVFAADK, the AmyQ secretion efficiency is 3.29. MKKVLMAFIICLSLILQGGKGPPGGAKAESV came in with an AmyQ secretion efficiency of 5.23. MTSAFILSAAAAVGLFTFGGVQQASAKEL showed an AmyQ secretion efficiency of 2.86. The value for MTGSSVITCVMAASLTLGSLLPAGYATAKED was 4.28; that for MKWMCSICCAAVLLAGGAAQGEAV was 3.2; that for MKKKKAGLFLAAAVLLCLMVPQQIQGASS was 4.01. In turn, MNLRKILLSSALSLGMLVSAAPVLGTSS displayed an AmyQ secretion efficiency of 4.45. As for MKKKRRKCSICCAAVLLAGGAAQAEAV, the AmyQ secretion efficiency was 6.1. The figure for MKKFVAVAALSTTAFGAHASAKEI is 6.74; for MKKRRLIGFLVLVPALIMSGITLIEANKK it is 6.64.

As for MKKKLAAGLTASAIVGTTLVVTPIEAATI, the AmyQ secretion efficiency is 2.11.

For MFNRLFRVCFLAALIMAFTLPNSVYAQPK, the AmyQ secretion efficiency worked out at 1.86.

The sequence MSFKRVITCVMAASLTLGSLLPAGYASAKED had an AmyQ secretion efficiency of 2.84. In turn, MKKQIITATTAVVLGSTLFAGAASAQKR gave an AmyQ secretion efficiency of 2.23. Consider MKRMIVRMTLPLLIVCLAFSSFSASARNASE, for which the AmyQ secretion efficiency turned out to be 3.81.

On to MKVPKTMLLSTAAGLLLSLTATSVSAHRK, for which the AmyQ secretion efficiency worked out at 4.68. In turn, MKRIRIPMTYRYQSALTIAPLSFASAEEN gave an AmyQ secretion efficiency of 7.35. The figure for MKWMCSICCAAVLLAGGAAQVEAV is 2.92; for MKSKWMSGLLLVAVGFSFTQVMEHAGET it is 7.11; for MRKKRNVITCVMAASLTLGSLLPAGYASAKED it is 3.03.

In turn, MKSKWMSGLLLVAVGFSFTQVMNHAGET registered an AmyQ secretion efficiency of 5.68. Turning to MKLKKRVSMFLVALTMCGGLFVITVFTAVFTPAKAVKT, the AmyQ secretion efficiency came out at 7.26. The value for MKKWIYVVLVLSIAGIGGFSNHAASS was 6.81.

In turn, MRKKCSVCLWILVLLLSCKKRKKRAYAATS registered an AmyQ secretion efficiency of 6.88. The sequence MPIKKKVMMCLAVTLVFGSMSFPTLTNATSGGFKE gave an AmyQ secretion efficiency of 2.8.

In turn, MGSSILLSSLAISALSLGLLVSAPTASFAAES showed an AmyQ secretion efficiency of 3.62. The figure for MMSLLAAGIIGLLTVSIASPSFAAEK is 5.23; for MKKWLIIAVSLAIMYTKGEAKAAGM it is 2.92. Sequence MKKAAAVLLSLGLVFGFSYGAGHVYEAKTK had an AmyQ secretion efficiency of 5.94. In the case of MKKRFSGQMMTGLLFGLTSPAFAAEK, the AmyQ secretion efficiency was 6.38. As for MKKWLIIAVSLAIAIVLFMYTKGETKAAGM, the AmyQ secretion efficiency stood at 3.24.

With MLTKRQLTIYIMLLGLIAWFPGAAQAEEK, the AmyQ secretion efficiency is 2.9. As for MKKAFILSAAAAVGLFTFGGVQQASGKEL, the AmyQ secretion efficiency worked out at 3.67. Turning to MKKLLAAGIIGLLTVSIASPIFAAEK, the AmyQ secretion efficiency was found to be 1.99. On to MKKTIMSFVAVAALSTTAFGAHSSAKEI, for which the AmyQ secretion efficiency worked out at 3.37. MGGSILIQVMIMFTLLLTMAFSADAADS gave an AmyQ secretion efficiency of 5.96.

Turning to MAIIIAIIAAVIVIAALITFNVRNISPG, the AmyQ secretion efficiency was found to be 7.65. The value for MKLSVKIKKKRRKAAAAMTAKMYATAKGN was 7.56. The sequence MKKIWIGMLAAAVLLLTKPKESLADAA came in with an AmyQ secretion efficiency of 3.56.

As to MKRIRIPMTLALGAALTIAPLSFTSAEEN, the AmyQ secretion efficiency turned out to be 3.52.

For the sequence MKRIRIPMTLALGAALTIAPLSASAEEN, the AmyQ secretion efficiency stood at 2.88. The value for MLCVMMLLFSAIASFPVSEQAKDQ was 4.62; that for MFNRLFRVCFLAALIMAFTLPNSYYAQKP was 7.48; that for MKRLFMKLLTTTASLVLFAVVFVFAVKGAPAKAETH was 2.87. Consider MKKKNSISSLNMLAAGLTASAIVGTTLVVTPAEAATI, for which the AmyQ secretion efficiency was 2.17. MKKKIVALLAVIAVVSGSSMAAAPAEAKTI: the AmyQ secretion efficiency stood at 3.11. MPYLKRVRRRRRRGLFMSLFAVTATASAQTG came in with an AmyQ secretion efficiency of 6.28.

Turning to MKKTIMSFVAVAALSTTAFGAHASLKEI, the AmyQ secretion efficiency was 6.92. For MLKKKWMVRRRKGCLAAGGFSYNAFATEN, the AmyQ secretion efficiency was 7.58. Turning to MGLGKKLSVAVAASFMSLSISLPGVQHAEG, the AmyQ secretion efficiency was 3.41. For MKNMSCKLVVSVTLFFTIGPLAHAQNS, the AmyQ secretion efficiency amounted to 2.62. On to MTKKAWFLPLVCVLLISGWLAPAASASFQTT, for which the AmyQ secretion efficiency was found to be 2.38.

With MKKAFLVFLSVVLVTTVFLVKQQESVPQAKQL, the AmyQ secretion efficiency was determined as 7.73. For the sequence MGLGKKLSVAVAASFMSLSISLPGVQRAEG, the AmyQ secretion efficiency is 2.64. Sequence MKKRITYSLLALLAVVAFAFTDSSKAKAAEE showed an AmyQ secretion efficiency of 2.71. Turning to MKKRLIAPMLLSAASLAFFAMSGSSQAAAY, the AmyQ secretion efficiency was found to be 4.08. Consider MKKQIITATTAVVLGSTLFASPASAQSI, for which the AmyQ secretion efficiency is 1.55. Turning to MKSKGSIMACLILFSFTITTFINTETESAFSN, the AmyQ secretion efficiency stood at 7.01. Consider MKKGIIRFLLVSFVLFFALSTGITGVQAARK, for which the AmyQ secretion efficiency was 2.85. Turning to MKRRRRKIWTIILGALLVCCIAVAYTLTKSQAGASSS, the AmyQ secretion efficiency was 5.49. On to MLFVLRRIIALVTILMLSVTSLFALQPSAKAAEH, for which the AmyQ secretion efficiency came out at 1.93. Consider MNKLKRLSMLTVMIASVFIFSSHVLAAQY, for which the AmyQ secretion efficiency was determined as 2.99. As to MKKLLAAGIIGLLTVSIASPSFARRK, the AmyQ secretion efficiency came to 6.83. MRMLWRSLALCGLALTLAPCAQVAEP: the AmyQ secretion efficiency came out at 6.05. Turning to MKKKQVMLALTAAAGLGLTALHSAPAAKSAPL, the AmyQ secretion efficiency was 3.28.

Consider MKVPKTMLLSTAAGLLLSLTATSTSAHYV, for which the AmyQ secretion efficiency amounted to 4.19.

On to MKKLLAAGIIGLLTVSIASPSFRAEK, for which the AmyQ secretion efficiency was 7.12.
